Assay results taken from US20220041658A1 (PROTAGONIST THERAPEUTICS, published 2022).
Starred links: 1 amine or outer side, 2 acyl side, 3 side chain; linkers in the order of their positions; H or OH if unused. Positions of bridges follow the written chain, without caps; N, C: chain ends. Non-standard residues stand in square brackets, D forms with d. Trp(7-Et) = 7-ethyl-tryptophan, CCc1cccc2c(C[C@H](N[*:1])C(=O)[*:2])c[nH]c12; Trp(7-Me) = Cc1cccc2c(C[C@H](N)C(=O)O)c[nH]c12; 2Nal = N[C@@H](Cc1ccc2ccccc2c1)C(=O)O; AEF = NCCOc1ccc(C[C@H](N)C(=O)O)cc1; Cit = NC(=O)NCCC[C@H](N)C(=O)O; Pen = CC(C)(S)[C@H](N)C(=O)O; αMeK = C[C@](N)(CCCCN)C(=O)O; Aib = CC(C)(N)C(=O)O

T1: interleukin-23 receptor (IL-23R) (human, UniProt Q5VWK5 24-629)
T1 sequence (looked up): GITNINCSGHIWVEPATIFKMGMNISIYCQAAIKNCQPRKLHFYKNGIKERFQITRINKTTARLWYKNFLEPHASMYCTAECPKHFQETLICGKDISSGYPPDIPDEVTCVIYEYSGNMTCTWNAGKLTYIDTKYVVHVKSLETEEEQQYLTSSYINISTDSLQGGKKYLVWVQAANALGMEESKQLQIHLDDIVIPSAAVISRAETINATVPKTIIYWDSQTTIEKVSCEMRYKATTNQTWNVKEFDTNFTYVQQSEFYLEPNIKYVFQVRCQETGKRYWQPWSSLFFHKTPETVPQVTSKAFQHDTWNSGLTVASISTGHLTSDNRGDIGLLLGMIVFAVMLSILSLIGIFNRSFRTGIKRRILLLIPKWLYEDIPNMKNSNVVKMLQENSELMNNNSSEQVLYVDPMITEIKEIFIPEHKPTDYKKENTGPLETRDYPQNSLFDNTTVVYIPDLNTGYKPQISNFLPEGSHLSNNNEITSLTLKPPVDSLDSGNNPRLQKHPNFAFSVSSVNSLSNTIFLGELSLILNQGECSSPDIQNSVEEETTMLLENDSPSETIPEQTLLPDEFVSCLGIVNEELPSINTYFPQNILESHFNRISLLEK


Columns and labels:
[1] = target: T1, interleukin-23 receptor (IL-23R); assay: cell-based or functional assay
[2] = target: T1, interleukin-23 receptor (IL-23R); assay: cell-based or functional assay; remark: listed apart in the source

| NK Cell Assay IC50 [1] [nM] | pStat3 HTRF IC50 [2] [nM] | Binder |
| --- | --- | --- |
| 11 | 2.45 | Ac-[Pen]NT[Trp(7-Me)]K(Ac)[Pen]H[2Nal][αMeK]K(Ac)N[dL]-NH2 (disulfide 1-6 (inferred)) [Peptide of SEQ ID NO: 290] |
| 3.16 | 0.34 | Ac-[Pen]NT[Trp(7-Et)]K(Ac)[Pen][AEF][2Nal][αMeK]K(Ac)N[dL]-NH2 (disulfide 1-6; SMILES CCc1cccc2c(C[C@@H]3NC(=O)[C@H]([C@@H](C)O)NC(=O)[C@H](CC(N)=O)NC(=O)[C@@H](NC(C)=O)C(C)(C)SSC(C)(C)[C@@H](C(=O)N[C@@H](Cc4ccc(OCCN)cc4)C(=O)N[C@@H](Cc4ccc5ccccc5c4)C(=O)N[C@@](C)(CCCCN)C(=O)N[C@@H](CCCCNC(C)=O)C(=O)N[C@@H](CC(N)=O)C(=O)N[C@H](CC(C)C)C(N)=O)NC(=O)[C@H](CCCCNC(C)=O)NC3=O)c[nH]c12) [Peptide of SEQ ID NO: 284] |
| 5.12 | 1.91 | Ac-[Pen]NT[Trp(7-Me)]K(Ac)[Pen][2Nal][2Nal][αMeK]K(Ac)N[dL]-NH2 (disulfide 1-6 (inferred)) [Peptide of SEQ ID NO: 289] |
| 5.15 | 0.596 | Ac-[Pen]NT[Trp(7-Me)][Cit][Pen][AEF][2Nal][αMeK]K(Ac)N[Aib]-NH2 (disulfide 1-6; SMILES CC(=O)NCCCC[C@H](NC(=O)[C@](C)(CCCCN)NC(=O)[C@H](Cc1ccc2ccccc2c1)NC(=O)[C@H](Cc1ccc(OCCN)cc1)NC(=O)[C@H]1NC(=O)[C@H](CCCNC(N)=O)NC(=O)[C@H](Cc2c[nH]c3c(C)cccc23)NC(=O)[C@H]([C@@H](C)O)NC(=O)[C@H](CC(N)=O)NC(=O)[C@@H](NC(C)=O)C(C)(C)SSC1(C)C)C(=O)N[C@@H](CC(N)=O)C(=O)NC(C)(C)C(N)=O) [Peptide of SEQ ID NO: 264] |
